We go through 1 substance from article PMC10578488.

This assay deals with recombinant PRMT5/MEP50 complex (human) (UniProt O14744). Nature of the assay: SEC; PRMT5/MEP50 and purified U7 6S combined (molar ratio 4:8 or 4:2) in 20 mM Hepes pH 7.7, 100 mM NaCl, 2 mM DTT, 1 h on ice; Superose 6. For orientation: In gel filtration, larger molecules generally elute earlier.
Sequence of recombinant PRMT5/MEP50 complex (human) (O14744 whole entry, chain 1 of 2): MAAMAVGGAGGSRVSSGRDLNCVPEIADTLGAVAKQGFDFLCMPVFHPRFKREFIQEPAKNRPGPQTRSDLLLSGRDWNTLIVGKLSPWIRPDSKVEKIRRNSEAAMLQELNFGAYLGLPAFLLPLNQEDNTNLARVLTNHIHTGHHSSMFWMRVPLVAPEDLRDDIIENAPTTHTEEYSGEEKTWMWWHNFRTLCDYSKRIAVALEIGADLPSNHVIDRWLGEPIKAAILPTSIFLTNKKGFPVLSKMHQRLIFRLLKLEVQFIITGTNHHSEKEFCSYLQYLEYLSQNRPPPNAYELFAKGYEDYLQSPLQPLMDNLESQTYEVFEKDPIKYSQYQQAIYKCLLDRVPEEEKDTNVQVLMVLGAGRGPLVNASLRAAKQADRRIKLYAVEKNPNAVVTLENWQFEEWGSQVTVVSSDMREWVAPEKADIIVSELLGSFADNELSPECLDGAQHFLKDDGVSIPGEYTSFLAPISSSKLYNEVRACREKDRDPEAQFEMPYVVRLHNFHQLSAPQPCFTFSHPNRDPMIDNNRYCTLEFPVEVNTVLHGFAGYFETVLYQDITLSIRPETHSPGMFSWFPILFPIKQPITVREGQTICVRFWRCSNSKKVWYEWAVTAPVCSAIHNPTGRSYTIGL
Sequence of recombinant PRMT5/MEP50 complex (human) (Q9BQA1 whole entry, chain 2 of 2, further chain): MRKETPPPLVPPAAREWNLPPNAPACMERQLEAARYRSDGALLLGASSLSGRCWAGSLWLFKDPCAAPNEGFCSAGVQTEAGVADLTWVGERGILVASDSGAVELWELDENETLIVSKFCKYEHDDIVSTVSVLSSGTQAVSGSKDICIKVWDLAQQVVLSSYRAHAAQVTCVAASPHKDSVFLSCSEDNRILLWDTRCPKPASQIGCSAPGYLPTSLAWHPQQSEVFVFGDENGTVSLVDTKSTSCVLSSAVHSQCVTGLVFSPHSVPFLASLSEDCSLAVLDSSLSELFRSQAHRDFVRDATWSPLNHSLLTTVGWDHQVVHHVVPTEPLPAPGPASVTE

For the substance “U7 6S complex (MBP-Lsm10/11ΔNL heterodimer, SmE/F/G heterotrimer and pICln) (from UniProt Q969L4 1-123; P83369 153-360; P62304 1-92; P62306 1-86; P62308 1-76; Q61189 1-236)”, the stoichiometry N (U7 6S per PRMT5/MEP50 heterooctamer) is 1.
